Assay: soluble on expression in E. coli; label from the status in PepcDB or PDB records

Sequence | soluble on expression in E. coli
MSEKTFLVEIGTEELPPKALRSLAESFAANFTAELDNAGLAHGTVQWFAAPRRLALKVANLAEAQPDREIEKRGPAIAQAFDAEGKPSKAAEGWARGCGITVDQAERLTTDKGEWLLYRAHVKGESTEALLPNMVATSLAKLPIPKLMRWGASDVHFVRPVHTVTLLLGDKVIPATILGIQSDRVIRGHRFMGEPEFTIDNADQYPEILRERGKVIADYEERKAKIKADAEEAARKIGGNADLSESLLEEVASLVEWPVVLTAKFEEKFLAVPAEALVYTMKGDQKYFPVYANDGKLLPNFIFVANIESKDPQQIISGNEKVVRPRLADAEFFFNTDRKKRLEDNLPRLQTVLFQQQLGTLRDKTDRIQALAGWIAEQIGADVNHATRAGLLSKCDLMTNMVFEFTDTQGVMGMHYARHDGEAEDVAVALNEQYQPRFAGDDLPSNPVACALAIADKMDTLAGIFGIGQHPKGDKDPFALRRAALGVLRIIVEKNLNLDLQTLTEEAVRLYGDKLTNANVVDDVIDFMLGRFRAWYQDEGYTVDTIQAVLARRPTRPADFDARMKAVSHFRTLEAAAALAAANKRVSNILAKSDEVLSDRVNASTLKEPEEIKLAMQVVVLRDKLEPYFAEGRYQDALVELAELREPVDAFFDKVMVMVDDKELRLNRLTMLEKLRELFLRVADISLLQ | not soluble
MGSDKIHHHHHHMEQTTQTQLVEIQQVVLRMSKYFVAFCEEHNLTCYFCGGGCIGAIRSQGFIPWDDDLDFFMPRPDYEKLKVLWPKYADTECYPLLVASKTYNDHNSFMTIRDAQTTFIKTYQDGLAIPHGIPIDIFPLDGAPKGNFQRKKQKIWALIYALFCSQVVPEKHGGILATGSRVLLNIFPSKKVRYHIWRFAEKRMTKYSFGSTPYVTELCVGPRYMGNIYHLEDFKSAIFVPFEDTKMPIPVGYKRYLTEVFGDYMQLPPEEDRQPHHEALIVDTKKSYTEYLKK | not soluble
MGSDKIHHHHHHMLQAFYTGLSGLNSYSKNLDNVSNNIANMNTAGYRGMDSFYQALGGDSDKPGLGAQISGLGYRFSVGDIRQTGNDFDLAITGTGFFALLDGEKVFYTRTGQFEFDQNNVLVDKNTGFKVAGIDSNGQLSEINLLSYQAIKPTATTKLSLTGNLSPLDDVHQISSAKMINSLGEEVDLSIKFTNEKATFPNQWKVEILDDKGIVLHSDSVKFGPDGTPEVGSGSFIFNLADSSGNTTPIDITVGTIGDFSAVTQTSATGVDSNVTLHAVDGKGVGQLVKRSFDPQGRVTLNYSNGDKVTPFTIAMVDFDDISTLSIESGTVFKASDLESRVLGKAGEGRFKQLATSSIEMSNVDLSQEFADMLVIQRGYQASSRILNVANQMIEQLYENTRGR | not soluble
MAHHHHHHMSTYVPKPSRDNVYRFFFTEGVIACKKDRMGTWTGTLGGNTFTVPCIQVMQLMRSLKSRNLIKEQYAWRHYYWTLNDEGIAYMRSYLHLAPSAMPNTQKPSSVNFEKVTEGRGRGRGRGGRGRGEGRGRGRGEGRGRGRGRGFGGERMNYRAAAATSDGEAAPAPAAE | soluble
MGSDKIHHHHHHMNKQVNFDELEVGYDVPALPGMDEADIQTPCLVLDLDALERNIKKMGDYAREHGMRHRVHGKMHKSVDVAKLQEELGGACGVCCQKVSEAEVFARGGIKDVMVSNQVTDPQKIDRLARMPKFGARVLCCVDDPANVADLSAAAVKHGTQIEALVEIDCGAGRCGVTTTQEVVNIAKMIDAAEGLKFAGIQAYQGAMQHLDSYDERASKTQVAIDMVEDAIAGLKANGLECDIVGGGGTGSYYFESNSGAFNELQCGSYAFMDADYGRILDKDGKRIDDGEWENALFILTSVMSHAKADKAIVDAGLKAQSVDSGLATIYGRDDVEYVKCSDEHGVVMDPDGVLNVNDKLRLVPGHCDPTCNVHDWYVGVRGGKVETLWPVSARGKAY | not soluble
MDLPVMPPVKPMLAKSVAKIPPGMHYEAKWDGFRAIVYRDGDEVELGSRTGKPLTRYFPELVVAVRERLPERCVVDGEIVIARDGHLDFDALTERIHPADSRVRTLAERTPASLVAFDLLALDDASLLDVGLADRRALLVRALSGVTPPVHVAPATDDIEVARRWFEQYEGAGLDGVVAKPLDLRYRQDERAMYKIKHERTADVVVAGYRFHKSGPVVGSLLLGLYDDRGLLQHVGVSAAFTMKRRAELVAELEPLRMDDARGHPWAAWAEEAAHESARLPGAPSRWSGKKDLSWVPLRPERVVEVAYDHMENGARFRHTARFRRWRPDRTPESCTYAQLEEPVRYDLAEILGGPLEHHHHHH | not soluble
MSLEGVENKVIVLAGMIGAGKSSYTELIANELGTKAFYESIKDNRILEMFYDDPKRWAFALQIYFLNTRFRSIKAALTDQNNVLDRSIYEDALFTQINFEEGNISEPEMDTYLDLLDNMMEELAYMPKKAPDLLIYLRGSLDTVLSRIALRGRPYEQIDDNPGLLEYYKHLHSRYDSWFASYDKSETLVINIDEIDINKPNDADYVMQLIHEKLKREGHHHHHH | soluble
MGSDKIHHHHHHMKTQFPSVWQDKLSQKHFSAFTTIQEAAFDPIKNGKSLLGISPTGSGKTLAYLWPSLLTLTPKKAQQLLILAPNTELAGQIFEVAKEWAQPLNLTAQLFLSGSSQKRQIERLKKGPEIIIGTPGRVFDLVKLKKIKMMNVNTIVLDEFDDLLGKSQIHFVKNIVKRVPRDHQMIYMSATNSIDRTFLADDTLEIDLSKQTVDTISHYYITVAKRERGELLRKFSNIPNFRGLVFFNRLSDLGANEERLQFSGASAVSLASDVNIKFRKVILEKFKNHELSLLLATDLVARGIDIELLETVINFDLPRDKDAYNHRAGRTGRMGKNGIVVTFISHPEELKKLKKFAHVSEVYLKNQILHKK | not soluble
MQGLELPQSYFNAAAKRQKYAMKPGLSALEKNAVIKAAYRQIFERDITKAYSQSISYLESQVRNGDISMKEFVRRLAKSPLYRKQFFEPFINSRALELAFRHILGRGPSSREEVQKYFSIVSSGGLPALVDALVDSQEYADYFGEETVPYLRGLEHHHHHH | not soluble
GPGSMAAGNSISVKVDVPSQVKGQGTLEMSYYIYPITMRLPGFMSDARFNRRYTDFETLRGQLCATYWYCIVPPIPEKESVQDKLGKLPRMVASAKETTASEGDLLEYRRISLRRFLQRLAYHPILGKSDLLQKFTNDNEWRQCIRDPVKPPR | not soluble
MGSDKIHHHHHHMTNIEVEINDNYICVYERLNDDCIRLLHMYGKNPVCVVPDMLDGMRVTELAEYCFSFKSMPEKLKTELGIDDILRPDMTELCDDYIERVILPDGMKKIGRLCFYNCSRLTMLELPSDICDVDGDAFMNCTKLYMLVMRGSPKDKSCLKQILSQISTLVRVRWADSDGNAIAQACFFEYDQTYDEIGPAHIFKLNMNGEGFRARQAFMDRVFVWKQYDEIFSEAIAQESEDDLLDMAFYRLIYAYELSKEARQQFLEYIVNHKKRLSELIIRKRDSGLLQSFLELKDGEENFIADVLAVTDMLALAAQDEWSEGSVILHRFKKENLSVSRKRRFEF | not soluble
MALALSLSACSPPLRRTRRAGFRTSCSIFANPAQRAKRKLLELISEEDRGLRTQKDPKKRDEIVNAIESMTVIGRSSITTDDSLSATWRLLWTTEKEQLFIIEKAGLFGTTAGDVLQVIDVNKRILNNVITFPPDGVFFVRSDIDIASPQRVNFRFNSAVLRGKNWELPLPPFGKGWFENVYMDGEIRVAKDIRGDYLIVDRAPYNWTESFV | soluble
MKIVAIGAIPFSIPYTKPLRFASGEVHAAEHVLVRVHTDDGIVGVAEAPPRPFTYGETQTGIVAVIEQYFAPALIGLTLTEREVAHTRMARTVGNPTAKAAIDMAMWDALGQSLRLSVSEMLGGYTDRMRVSHMLGFDDPVKMVAEAERIRETYGINTFKVKVGRRPVQLDTAVVRALRERFGDAIELYVDGNRGWSAAESLRAMREMADLDLLFAEELCPADDVLSRRRLVGQLDMPFIADESVPTPADVTREVLGGSATAISIKTARTGFTGSTRVHHLAEGLGLDMVMGNQIDGQIGTACTVSFGTAFERTSRHAGELSNFLDMSDDLLTVPLQISDGQLHRRPGPGLGIEIDPDKLAHYRTDN | soluble
MEQDINNQTGKKIFLNEECFLELDKLPQHVSVLGVSGFGKSNILLHFLKYAIDNDHPLIFVNGKGDKELITQFEHYQTSAKQLSPEDGFDTVKLVALKNTSAKIWSLDDRIATIKYNPFK | soluble
MGSDKIHHHHHHMAGNTIGQLFRVTTFGESHGLALGCIVDGVPPGIPLTEADLQHDLDRRRPGTSRYTTQRREPDQVKILSGVFEGVTTGTSIGLLIENTDQRSQDYSAIKDVFRPGHADYTYEQKYGLRDYRGGGRSSARETAMRVAAGAIAKKYLAEKFGIEIRGCLTQMGDIPLDIKDWSQVEQNPFFCPDPDKIDALDELMRALKKEGDSIGAKVTVVASGVPAGLGEPVFDRLDADIAHALMSINAVKGVEIGDGFDVVALRGSQNRDEITKDGFQSNHAGGILGGISSGQQIIAHMALKPTSSITVPGRTINRFGEEVEMITKGRHDPCVGIRAVPIAEAMLAIVLMDHLLRQRAQNADVKTDIPRW | not soluble
MPQFETHRLVKHSPDRMYDLVADVEKYPQFLPLCEALSVRSRKERDGKVLLVADMTVGYKAIRETFTTQVLLNPAERAIDVKYIDGPFRYLDNRWRFEAAENGGTTIHFFIDYEFKNRLLGAVMGSMFDRAFRMFAEAFETRADKIYTDPALEHHHHHH | soluble
MGSDKIHHHHHHMKASDFREWVGKITQLSRGQKEQTKHKLGGMVPRIEVAKWLESSFEPICPVCQSNHFYRWGYQAGLQRFYCRMCKHTFTAISGTPLARLRHKDQWLNYSAALIEGLTVRASARQCRIDKNTSFRWRHRFLTLPAAAKANHLEGIVEADETFFPVSCKGQRQLDRPPRKRGKQIHMRGTGKDQVPVLIVRDRSGATADFMLDAIDRKAIEPPLRTVLEKDVIFCSDGAAVYRSVARSLGITHRPVNLAAGVRVIAGVYHIQNVNAYHSRLKQWMKRFHGVATRYLENYLGWFRWLDQQENLSSPIVPLQAALGRENQFQLLTNT | not soluble
MLGLFDQGRLIGAVVLDPRRLGPERDWLQLKFLHLSHAYRRRGLGAHLFHLAATQARHLGASALYVSATPSQNTVDFYTRLGCR | soluble
MIIEKKIKNYTVFVKKDGEKYIEIFKDFLSYNHQVIKVFRNIEDTKVVLINTDYGKYILKVFSPKVKNTERFFKSLVKGDYYEKLFHQTDRVRREGFAALNDFYLLAEIKTLRYVKTYVMIIEYIEGIELVDMPEISDEVRGKIKQSIYSLHQHGMVSGDPHKGNFILQGNEIRIIDLSGKRPSRQRKAKDRIDLERHYGIKNNVRDIGFYLLIYKKKLRNFLRRIKGKEKRLEHHHHHH | not soluble
SATPLDNCLRPFPDPMVKVTAETKKISEVSSYVSANNKKNSFWGSGLLYPVALLRCQDCWAGHQTHVLSKEFTSYFSSGAGREAQHQPSAVLGSLIWLRRVYLLRAMVVHGGSQPCQRWLVIRMEVGGHPSFPGHAWLTFHLN | soluble
RRTTNDGFHLLKAGGSCFALISGTANQVKCYRFRVKKNHRHRYENCTTTWFTVADNGAERQGQAQILITFGSPSQRQDFLKHVPLPPGMNISGFTASLDF | soluble
SMRPQPGDGERRYREASARKKIRLDRKYIVSCKQTEVPLSVPWDPSNQVYLSYNNVSSLKMLVAKDNWVLSSEISQVRLYTLEDDKFLSFHMEMVVHVDAAQAFLLLSDLRQRPEWDKHYRSVELVQQVDEDDAIYHVTSPALGGHTKPQDFVILASRRKPCDNGDPYVIALRSVTLPTHRETPEYRRGETLCSGFCLWREGDQLTKVSYYNQATPGVLNYVTTNVAGLSSEFYTTFKACEQFLLDNRNDLAPSLQTL | soluble

— the DeepSol protein solubility set
